Test results reported in paper PMC10699790 (Science Advances, 2023).

What was measured:
HA-Halo-mGluR2 = HA-Halo-mGluR2 (rat, UniProt P31421 19-872, Halo tag labeled with CA-SS-Alexa-488); assay: single-molecule pulldown
HA-Halo-mGluR8 = HA-Halo-mGluR8 (human, UniProt O00222 34-908, Halo tag labeled with CA-SS-Alexa-488); assay: single-molecule pulldown
HA-Halo-mGluR8, sequence (O00222 34-908): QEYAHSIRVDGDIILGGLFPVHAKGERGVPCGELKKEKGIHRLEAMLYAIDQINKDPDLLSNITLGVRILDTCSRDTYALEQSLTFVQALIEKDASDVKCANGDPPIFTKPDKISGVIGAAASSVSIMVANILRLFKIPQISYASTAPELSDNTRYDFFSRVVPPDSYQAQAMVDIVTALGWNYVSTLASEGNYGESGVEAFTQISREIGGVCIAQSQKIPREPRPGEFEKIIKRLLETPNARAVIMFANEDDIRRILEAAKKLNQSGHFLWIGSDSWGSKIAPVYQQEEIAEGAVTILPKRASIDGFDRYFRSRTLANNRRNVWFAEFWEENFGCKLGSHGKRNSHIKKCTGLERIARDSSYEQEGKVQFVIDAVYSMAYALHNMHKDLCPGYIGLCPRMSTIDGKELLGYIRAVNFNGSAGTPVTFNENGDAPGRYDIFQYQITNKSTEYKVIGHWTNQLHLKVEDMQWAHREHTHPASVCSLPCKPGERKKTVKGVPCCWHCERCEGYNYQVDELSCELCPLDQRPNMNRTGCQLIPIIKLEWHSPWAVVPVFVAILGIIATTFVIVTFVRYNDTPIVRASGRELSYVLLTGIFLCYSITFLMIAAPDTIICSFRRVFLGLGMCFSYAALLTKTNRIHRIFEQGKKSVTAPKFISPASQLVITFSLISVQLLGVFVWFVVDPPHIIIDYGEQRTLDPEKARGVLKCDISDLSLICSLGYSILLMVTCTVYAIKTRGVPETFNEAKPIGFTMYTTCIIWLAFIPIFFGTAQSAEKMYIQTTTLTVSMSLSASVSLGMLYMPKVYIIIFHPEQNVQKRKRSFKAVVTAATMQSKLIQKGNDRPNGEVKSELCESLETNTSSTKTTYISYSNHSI

HA-Halo-mGluR2, sequence (P31421 19-872): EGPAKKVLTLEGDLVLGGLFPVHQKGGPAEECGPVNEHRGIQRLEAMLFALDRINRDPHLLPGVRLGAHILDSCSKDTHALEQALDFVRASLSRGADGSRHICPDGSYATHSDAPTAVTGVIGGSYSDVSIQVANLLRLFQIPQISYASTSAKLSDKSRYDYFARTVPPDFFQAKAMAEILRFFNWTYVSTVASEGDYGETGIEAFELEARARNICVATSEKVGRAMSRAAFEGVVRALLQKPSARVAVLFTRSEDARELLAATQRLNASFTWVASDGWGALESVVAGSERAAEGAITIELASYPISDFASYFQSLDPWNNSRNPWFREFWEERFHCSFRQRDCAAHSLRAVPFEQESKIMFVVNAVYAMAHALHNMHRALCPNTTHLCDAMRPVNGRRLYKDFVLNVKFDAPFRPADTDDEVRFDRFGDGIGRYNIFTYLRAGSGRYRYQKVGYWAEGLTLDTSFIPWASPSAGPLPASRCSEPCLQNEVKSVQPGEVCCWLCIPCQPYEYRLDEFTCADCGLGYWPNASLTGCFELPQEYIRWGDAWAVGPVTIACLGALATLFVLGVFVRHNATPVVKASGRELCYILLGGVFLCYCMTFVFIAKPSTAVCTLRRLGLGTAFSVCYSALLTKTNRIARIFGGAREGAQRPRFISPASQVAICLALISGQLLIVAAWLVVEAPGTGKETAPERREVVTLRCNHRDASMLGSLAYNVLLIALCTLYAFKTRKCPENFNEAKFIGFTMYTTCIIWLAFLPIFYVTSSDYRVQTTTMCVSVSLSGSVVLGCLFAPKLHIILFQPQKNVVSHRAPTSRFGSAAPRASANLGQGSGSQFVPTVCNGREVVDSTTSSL

B1: SNAP-mGluR3 without an HA tag (receptor)
chain: LGDHNFMRREIKIEGDLVLGGLFPINEKGTGTEECGRINEDRGIQRLEAMLFAIDEINKDNYLLPGVKLGVHILDTCSRDTYALEQSLEFVRASLTKVDEAEYMCPDGSYAIQENIPLLIAGVIGGSYSSVSIQVANLLRLFQIPQISYASTSAKLSDKSRYDYFARTVPPDFYQAKAMAEILRFFNWTYVSTVASEGDYGETGIEAFEQEARLRNICIATAEKVGRSNIRKSYDSVIRELLQKPNARVVVLFMRSDDSRELIAAANRVNASFTWVASDGWGAQESIVKGSEHVAYGAITLELASHPVRQFDRYFQSLNPYNNHRNPWFRDFWEQKFQCSLQNKRNHRQVCDKHLAIDSSNYEQESKIMFVVNAVYAMAHALHKMQRTLCPNTTKLCDAMKILDGKKLYKEYLLKINFTAPFNPNKGADSIVKFDTFGDGMGRYNVFNLQQTGGKYSYLKVGHWAETLSLDVDSIHWSRNSVPTSQCSDPCAPNEMKNMQPGDVCCWICIPCEPYEYLVDEFTCMDCGPGQWPTADLSGCYNLPEDYIKWEDAWAIGPVTIACLGFLCTCIVITVFIKHNNTPLVKASGRELCYILLFGVSLSYCMTFFFIAKPSPVICALRRLGLGTSFAICYSALLTKTNCIARIFDGVKNGAQRPKFISPSSQVFICLGLILVQIVMVSVWLILETPGTRRYTLPEKRETVILKCNVKDSSMLISLTYDVVLVILCTVYAFKTRKCPENFNEAKFIGFTMYTTCIIWLAFLPIFYVTSSDYRVQTTTMCISVSLSGFVVLGCLFAPKVHIVLFQPQKNVVTHRLHLNRFSVSGTATTYSQSSASTYVPTVCNGREVLDSTTSSL
modifications: SNAP tag labeled with SBG-JF646
HA-Halo-mGluR2
  stoichiometry N: 1
HA-Halo-mGluR8
  stoichiometry N: 1
